Data as given in patent US20160024199A1 (US Dept. of Health and Human Services, published 2016).
Positions count from the first letter of the chain named.

B1: IgG1 m708.5 (antibody, V domains shown)
VH: QVQLQQLGAEVKMPGSSVKVSCKASGGTFSSYAISWVRQAPGQGLEWMGGIIPTLGIVKYAQKFQGRVTITADKSTSTAYMELSSLGSEDTAVYYCAGGPRGYSYNFDNWGQGTLVTVSS
VL: DIQMTQSPSSLSASVGDRVTIVCRASQTISRYVNWYQQKPGKAPKLLIYAASSLQSGVSSRFSGSGSGTEFALTISSLQPEDFATYFCQQTYSPPITFGQGTRLEIKQ
notes: Human IgG1, converted from the scFv in vector pDR12 and expressed in 293 FreeStyle cells; also called m708.5 IgG; IgG m708.5
B2: IgG1 m708.2 (antibody, V domains shown)
VH: B1 VH with L7P, M13K, T54I, V58A, K59N, K74E, G87R, G98R, N109Y
VL: B1 VL with V22A, V33L, A72T, Q108R
notes: Human IgG1 (pDR12, 293 FreeStyle cells); also called IgG m708.2; IgG708.2
B3: bispecific antibody m67 (bispecific antibody)
chain 1: QVQLVQSGAEVKKPGASVKVSCKASGYTFTSYYMHWVRQAPGQGLEWMGIINPSGGSTSYAQKFQGRVTMTRDTSTSTVYMELSRLRSDDTAVYYCARDVQWLAYGMDVWGQGTTVTVSS
chain 2: DIQMTQSPSSLSASVGDRVTITCRASQSISSYLNWYQQKPGRAPDLLINAASSLQSGVPSRFSGSGSGTDFTLTISSLQPEDFATYFCQQSYSLPFTFGGGTKVEIK
chain 3: B1 VH
chain 4: B1 VL
B4: m708.2 scFv (scFv, V domains shown)
VH: B1 VH with L7P, M13K, T54I, V58A, K59N, K74E, G87R, G98R, N109Y
VL: B1 VL with V22A, V33L, A72T, Q108R
notes: One-chain scFv; Biacore on the isolated soluble scFv from pComb3x
B5: m708.5 scFv (scFv, V domains shown)
VH: B1 VH
VL: B1 VL
notes: One-chain scFv; also called scFv m708.5

Key:
[1] = molecular target: T1, recombinant human insulin-like growth factor I (IGF-I) (human, UniProt P05019 49-118); test: ELISA on coated IGF-I after incubation of the antibody with an equal volume of human serum at 37 C for 0 to 9 days
T1 construct: coated or coupled to a CM5 chip in ELISA and Biacore; also called biotinylated IGF-I

[2] = molecular target: T2, human insulin-like growth factor II (IGF-II) (human, UniProt P01344 25-91); test: ELISA, serial dilutions of IgG on coated IGF-II, detected with HRP anti-human Fc antibody
T2 construct: also called biotinylated IGF-II

[3] = molecular target: T1, recombinant human insulin-like growth …; test: Biacore, IgG1 format (effective KD, avidity)
[4] = molecular target: T2, human insulin-like growth factor II …; test: Biacore, IgG1 format (effective KD, avidity)
[5] = molecular target: T2, human insulin-like growth factor II …; test: ELISA on coated IGF-II after incubation of the antibody with an equal volume of human serum at 37 C for 0 to 9 days
human insulin = human insulin (human); test: ELISA, 10 nM IgG on coated human insulin, detected with HRP anti-human Fc antibody
[6] = molecular target: T1, recombinant human insulin-like growth …; test: ELISA, serial dilutions of IgG on coated IGF-I, detected with HRP anti-human Fc antibody
[7] = molecular target: T1, recombinant human insulin-like growth …; test: Biacore, IgG1 format
[8] = molecular target: T2, human insulin-like growth factor II …; test: Biacore, IgG1 format
[9] = molecular target: T1, recombinant human insulin-like growth …; test: cell-based or functional assay
[10] = molecular target: T2, human insulin-like growth factor II …; test: cell-based or functional assay
[11] = molecular target: T1, recombinant human insulin-like growth …; test: ELISA on coated IGF-I after incubation of the antibody with an equal volume of human serum at 37 C for 0 to 9 days; remark: listed apart in the source
[12] = molecular target: T2, human insulin-like growth factor II …; test: ELISA on coated IGF-II after incubation of the antibody with an equal volume of human serum at 37 C for 0 to 9 days; remark: listed apart in the source
[13] = molecular target: T1, recombinant human insulin-like growth …; test: Biacore X100, antigen immobilized on CM5, soluble scFv injected
[14] = molecular target: T2, human insulin-like growth factor II …; test: as above
[15] = molecular target: T1, recombinant human insulin-like growth …; test: FACS titration of yeast-displayed scFv with biotinylated antigen
[16] = molecular target: T2, human insulin-like growth factor II …; test: as above
[17] = molecular target: T1, recombinant human insulin-like growth …; test: as above; remark: listed apart in the source
[18] = molecular target: T2, human insulin-like growth factor II …; test: as above; remark: listed apart in the source

T1 sequence (P05019 49-118 limits assumed): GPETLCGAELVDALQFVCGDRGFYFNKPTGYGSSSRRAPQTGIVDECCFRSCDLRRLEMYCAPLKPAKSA
T2 sequence (P01344 25-91): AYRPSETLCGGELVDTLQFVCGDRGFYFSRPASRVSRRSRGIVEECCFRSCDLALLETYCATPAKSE
Chain of human insulin (human) (chain, as listed by the source limits assumed, chain 1 of 2): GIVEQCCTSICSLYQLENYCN
Chain of human insulin (human) (chain, as listed by the source limits assumed, chain 2 of 2): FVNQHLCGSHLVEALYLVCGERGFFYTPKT

Row | Binder | EC50 (read off the curve) [6] [nM] | growth inhibition of MCF-7 cells (MTS, 3 days; 2.5 nM IGF-I and 2.5 nM IGF-II added) [9] [nM] | growth inhibition of MCF-7 cells (MTS, 3 days; 2.5 nM IGF-I and 2.5 nM IGF-II added) [10] [nM] | Kd [13] [nM] | koff [13] [s⁻¹] | kon [13] [M⁻¹ s⁻¹] | Kd [14] [nM] | koff [14] [s⁻¹] | kon [14] [M⁻¹ s⁻¹] | Kd [15] [nM] | Kd [16] [nM] | other results
1 | B1 | ~0.4 | > 40 | > 40 |  |  |  |  |  |  |  |  | EC50 (read off the curve) [1]: ~2 nM; EC50 (read off the curve) [2]: ~0.1 nM; Kd [3]: < 0.001 nM; Kd [4]: < 0.001 nM; EC50 (read off the curve) [5]: ~2 nM; binding result (human insulin): no binding (tested: 10 nM); fold change of effective KD against the scFv [7]: 1000 fold; fold change of effective KD against the scFv [8]: 60 fold
2 | B2 | ~3 | > 80 | > 80 |  |  |  |  |  |  |  |  | IGF-I-induced (1 nM) phosphorylation of IGF-IR in MCF-7 cells, immunoblot [9]: 10 nM
3 | B3 |  |  |  |  |  |  |  |  |  |  |  | EC50 (read off the curve) [11]: ~1 nM; EC50 (read off the curve) [12]: ~3 nM
4 | B4 |  |  |  | 2.2 | 0.0024 | 1.1e+06 | 1.8 | 0.0004 | 230000 | 3.9 | 1.1 | 
5 | B5 |  |  |  | 0.2 | 0.00028 | 1.4e+06 | 0.061 | 0.00025 | 4.1e+06 | 0.1 | 0.041 | fold improvement of affinity against m708.2 [17]: 39 fold; fold improvement of affinity against m708.2 [18]: 27 fold
